Reference: PMC9681212

Target: Halo-HIF-1β (endogenously HaloTag-tagged HIF-1β, knock-in clone A21) (human (endogenous in 786-O)) (UniProt P27540)
Sequence (P27540 whole entry): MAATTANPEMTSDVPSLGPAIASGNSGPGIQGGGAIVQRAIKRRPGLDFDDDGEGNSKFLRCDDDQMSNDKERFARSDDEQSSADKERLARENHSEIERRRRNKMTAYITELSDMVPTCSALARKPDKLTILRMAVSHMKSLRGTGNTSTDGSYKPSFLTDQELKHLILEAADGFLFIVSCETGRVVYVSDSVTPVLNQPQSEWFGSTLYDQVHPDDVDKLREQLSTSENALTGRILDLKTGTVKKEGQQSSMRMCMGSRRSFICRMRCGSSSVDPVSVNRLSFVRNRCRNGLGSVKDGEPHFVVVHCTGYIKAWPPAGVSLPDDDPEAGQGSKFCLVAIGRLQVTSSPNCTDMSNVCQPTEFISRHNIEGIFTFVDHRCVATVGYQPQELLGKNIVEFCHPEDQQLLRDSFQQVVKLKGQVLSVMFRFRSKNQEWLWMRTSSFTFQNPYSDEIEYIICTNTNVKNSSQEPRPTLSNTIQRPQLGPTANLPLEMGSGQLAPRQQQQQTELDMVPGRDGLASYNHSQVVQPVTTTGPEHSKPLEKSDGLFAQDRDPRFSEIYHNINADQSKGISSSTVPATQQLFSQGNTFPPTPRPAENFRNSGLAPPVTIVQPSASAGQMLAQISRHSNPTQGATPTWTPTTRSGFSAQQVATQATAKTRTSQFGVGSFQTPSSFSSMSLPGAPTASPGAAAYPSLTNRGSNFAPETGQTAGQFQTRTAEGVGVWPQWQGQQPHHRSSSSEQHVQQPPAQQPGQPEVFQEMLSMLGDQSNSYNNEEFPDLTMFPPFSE

Chain of HIF-2α N-terminally fused with 3xFLAG tag through a short peptide linker sequence (GDGAGLIN) (Q99814 whole entry, the tested form may be a part): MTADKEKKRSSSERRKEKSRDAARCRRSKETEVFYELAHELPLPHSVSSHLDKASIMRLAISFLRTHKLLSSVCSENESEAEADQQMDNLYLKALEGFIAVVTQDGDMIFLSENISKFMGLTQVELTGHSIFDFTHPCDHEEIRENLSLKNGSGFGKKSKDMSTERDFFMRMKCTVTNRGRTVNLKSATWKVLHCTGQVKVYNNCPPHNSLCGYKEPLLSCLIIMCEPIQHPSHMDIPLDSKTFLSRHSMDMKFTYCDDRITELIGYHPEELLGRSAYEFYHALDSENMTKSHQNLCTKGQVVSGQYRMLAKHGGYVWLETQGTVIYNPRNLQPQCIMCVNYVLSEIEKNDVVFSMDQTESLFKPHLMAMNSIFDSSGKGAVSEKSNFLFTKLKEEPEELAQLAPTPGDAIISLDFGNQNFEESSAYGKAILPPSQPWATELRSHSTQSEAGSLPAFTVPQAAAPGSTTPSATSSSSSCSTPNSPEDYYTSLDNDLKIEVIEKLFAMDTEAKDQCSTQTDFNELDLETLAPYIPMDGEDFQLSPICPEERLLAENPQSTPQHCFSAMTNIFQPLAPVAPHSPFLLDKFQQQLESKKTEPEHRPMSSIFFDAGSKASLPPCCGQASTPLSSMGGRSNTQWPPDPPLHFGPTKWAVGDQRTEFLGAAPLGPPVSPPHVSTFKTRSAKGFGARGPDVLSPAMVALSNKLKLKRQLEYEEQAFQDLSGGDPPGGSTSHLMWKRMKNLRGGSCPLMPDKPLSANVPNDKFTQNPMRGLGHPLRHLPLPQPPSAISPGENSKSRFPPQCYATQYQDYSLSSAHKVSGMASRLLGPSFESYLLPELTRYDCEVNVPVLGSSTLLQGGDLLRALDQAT

- fSPT of endogenous Halo-HIF-1β in live 786-O KIN cells stably overexpressing HIF-2α: bound fraction of Halo-HIF-1β (diffusion coefficient <0.1 μm^2/s, presumably chromatin-bound): < 50%
Substance: HIF-2α N-terminally fused with 3xFLAG tag through a short peptide linker sequence (GDGAGLIN) (from UniProt Q99814 1-870) (natural protein)
